Results from publication PMC5384747, “Characterization and mutational analysis of a nicotinamide mononucleotide deamidase from Agrobacterium tumefaciens showing high thermal stability and catalytic efficiency” (PLoS ONE, 2017).

B1: AtCinA (NMN deamidase) (Agrobacterium fabrum str. C58) (protein)
chain: MSLFPGDIEELARRIITDFTPLGLMVSTAESCTGGLIAGALTEIAGSSAVVDRGFVTYTNDAKRDMLGVGTETLTTFGAVSRQTALQMAHGALYRSRANFAVAVTGIAGPGGGSAEKPVGLVHLATKARNGNVLHHEMRYGDIGRTEIRLATVRTALEMLIALNQAGSV
notes: full length (169 residues, synthetic 510 bp gene), C-terminal His tag (pET24b), E. coli Rosetta 2(DE3); about 19 kDa subunit, 41 kDa homodimer
B2: Agrobacterium tumefaciens nicotinamide mononucleotide (NMN) deamidase (enzyme)
chain: B1 chain
notes: NMN deamidase CinA of Agrobacterium tumefaciens, UniProt A9CJ26, 169 amino acids; 510 bp synthetic gene cloned between NheI and XhoI of pET24b; Cloning at the NheI and XhoI sites may add a few vector residues; also called AtCinA; CinA

Legend:
purified protein = substrate: NC(=O)c1ccc[n+]([C@@H]2O[C@H](COP(=O)(O)O)[C@@H](O)[C@H]2O)c1; test: purified protein; format: biochemical, Agrobacterium fabrum; conditions: 50 mM sodium phosphate pH 7.5, 37 °C
[1] = biological target: the molecule itself; test: SEC; gel filtration on Superdex 200 10/300 GL of the purified enzyme; about 41 kDa against about 19 kDa by SDS-PAGE

Row | Protein | Km (purified protein) [µM] | kcat (purified protein) [s⁻¹] | kcat/Km (purified protein) [M⁻¹ s⁻¹] | stoichiometry N [1]
1 | B1 | 24 ± 2 | 8.7 ± 0.2 | 362000 | –
2 | B2 | – | – | – | 2
